Consider 1 molecule from article doi:10.1101/2025.10.08.681152 (bioRxiv, 2025).

The target in the test is EGFP, C-terminally biotinylated (Aequorea victoria GFP, engineered EGFP …, biotin on the C-terminal biotin acceptor peptide). The test is described as follows: BLI. On the technique in general: Biolayer interferometry detects binding as a change in optical thickness at a sensor tip.

B1: GBP* (engineered GFP-Binding Protein, unconjugated) (VHH)
VHH: QVQLVESGGALVQPGGSLRLSCAASGFPVNRYSMRWYRQAPGREREWVAGMSSAGDRSSYEDSVRGRFTISRDDARNTVYLQMNSLRPEDTAVYYCNVNVGFEYWGQGTQVTVSS
With B1, the dissociation constant (Kd) (commonly the constant that tells how readily two partners part at equilibrium) amounted to 0.75 nM; the off-rate (koff) (as a rule, a measure of how fast the partners let go of each other) amounted to 7.1e-05 s⁻¹; the kon (commonly the rate constant with which the complex forms) is 94000 M⁻¹ s⁻¹.
